The test addresses HSP90N (human HSP90 isoform that lacks the N-terminal ATPase domain) (human) (UniProt P07900). Briefly: AUC; sedimentation velocity of fractions from the S-300 column, 0.3 mg/ml in 100 mM Tris-HCl, 45,000 rpm, 20°C, c(s) distribution (SEDFIT).

In paper PMC3102065 one finds stoichiometry N data, which are given here for one substance.

“And” between values parts separate entries of the source, which are not always exact repeats. Equal values may be shown once.

Take “HSP90N (human HSP90 isoform that lacks the N-terminal ATPase domain) (from UniProt P07900-1 224-732) (natural protein)”: the stoichiometry N (in general, a count of units in the complex or per binding partner) is 2 and 4 and 6.
